± gives the standard deviation of the averaged measurements.
B1: library; a variant is named by its letters at N, in order (parent)
chain: GCUGUCACCGGUGCUUGGUACGUUAUAUUCAGCCGGUCUGAUGAGUCUNNNNNNAGACGAAACAGC

Experiments:
(6R,S)-folinic acid [1] = variants of: B1; experiment: FACS-Seq fitted mean relative fluorescence mCherry/BFP without ligand (log10 relative fluorescence); HEK293T overexpressing SLC46A1; higher = higher reporter protein expression; conditions: without (6R,S)-folinic acid; ligand present: no
Summary of the method: (§1)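 HEK293T libraries were lentivirally transduced with an mCherry reporter carrying the ribozyme switch and an EF1α-BFP marker, enriched, and incubated for 48 h with or without ligand before sorting into 6 bins by mCherry/BFP. Genomic DNA from each bin was PCR-amplified, barcoded and sequenced on MiSeq. Fluorescence is the fitted normal mean of the bin counts. The fit used log10(mCherry/BFP), and means were scaled to five spiked-in control ribozymes.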

(6R,S)-folinic acid [2] = variants of: B1; experiment: normalized RNA/DNA level without ligand (relative to sTRSVctl = 100) (log10 (% of sTRSVctl)); HEK293T overexpressing SLC46A1; higher = less ribozyme self-cleavage, higher mRNA level; conditions: without (6R,S)-folinic acid; ligand present: no
Experimental: (§2)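 Hammerhead (sTRSV) ribozyme switch libraries with a ligand aptamer grafted on stem I and a randomized N4-6 loop II, cloned into the 3' UTR of mCherry and transiently transfected into HEK293T cells; RNA-Seq 72 h post transfection with ligand added 1 h before transfection; RNA read count / plasmid DNA read count normalized to the non-cleaving sTRSVctl (x100), log10; sequences with >100 DNA reads. FACS-Seq: lentiviral library sorted into 6 bins after 48 h ligand, log-normal fit mean of mCherry/BFP scaled to controls. Printed sequences are partial switch sequences.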

(6R,S)-folinic acid [3] = variants of: B1; experiment: FACS-Seq fitted mean relative fluorescence mCherry/BFP with ligand (log10 relative fluorescence); HEK293T overexpressing SLC46A1; ligand concentration (+) FACS-Seq: 6 mM; higher = higher reporter protein expression; conditions: with (6R,S)-folinic acid; ligand present: yes
Summary of the method: as §1

(6R,S)-folinic acid [4] = variants of: B1; experiment: normalized RNA/DNA level with ligand (relative to sTRSVctl = 100) (log10 (% of sTRSVctl)); HEK293T overexpressing SLC46A1; ligand concentration (+) RNA-Seq: 6 mM; higher = less ribozyme self-cleavage, higher mRNA level; conditions: with (6R,S)-folinic acid; ligand present: yes
Experimental: as §2

Row | Variant | FACS-Seq fitted mean (log10) ((6R,S)-folinic acid [1]) | normalized RNA/DNA level without ligand (log10) ((6R,S)-folinic acid [2]) | FACS-Seq fitted mean (log10) ((6R,S)-folinic acid [3]) | normalized RNA/DNA level with ligand (log10) ((6R,S)-folinic acid [4])
1 | CACCAU | 0.138 ± 0.12 | 1.9842 ± 0.00094 | 0.347 ± 0.13 | 2 ± 0.011
2 | GAAUUA | 0.508 ± 0.088 | 2.0059 ± 0.0002 | 0.572 ± 0.15 | 2.03 ± 0.031
3 | GAAUUG | 0.416 ± 0.035 | 1.928 ± 0.0066 | 0.46 ± 0.014 | 2 ± 0.066
4 | AACAGA | 0.344 ± 0.11 | 1.964 ± 0.01 | 0.425 ± 0.04 | 2 ± 0.028
5 | AACAGU | -0.296 ± 0.34 | 1.94 ± 0.018 | 0.0957 ± 0.15 | 2.001 ± 0.0087
6 | AACAGG | 0.475 ± 0.12 | 1.904 ± 0.01 | 0.351 ± 0.0077 | 2 ± 0.031
7 | GACAUU | 0.457 ± 0.096 | 2.024 ± 0.013 | 0.529 ± 0.11 | 2 ± 0.064
8 | GACAUA | 0.346 ± 0.14 | 1.984 ± 0.0071 | 0.3032 ± 0.002 | 2.01 ± 0.044
9 | AACCUU | 0.578 ± 0.19 | 2.044 ± 0.0052 | 0.59 ± 0.22 | 2.042 ± 0.02
10 | AACCUA | -0.147 ± 0.17 | 2.0051 ± 8.4e-05 | -0.514 ± 0.18 | 2.02 ± 0.034
11 | GACGCC | 0.287 ± 0.023 | 2.043 ± 0.0061 | 0.0736 ± 0.3 | 2.03 ± 0.028
12 | UAAGGA | 0.0731 ± 0.084 | 1.85 ± 0.026 | 0.217 ± 0.0071 | 1.997 ± 0.018
13 | UAAGGG | -0.0665 ± 0.0016 | 1.601 ± 0.002 | 0.263 ± 0.16 | 1.92 ± 0.025
14 | UAAGCA | 0.463 ± 0.0091 | 1.9355 ± 0.00085 | 0.377 ± 0.12 | 1.99 ± 0.021
15 | UAAGCG | 0.384 ± 0.026 | 1.736 ± 0.0051 | 0.777 ± 0.031 | 1.96 ± 0.045
16 | UAAGCU | 0.334 ± 0.089 | 1.992 ± 0.014 | 0.436 ± 0.13 | 2.021 ± 0.0075
17 | AAAGCA | 0.3689 ± 0.0015 | 1.975 ± 0.0052 | 0.575 ± 0.35 | 1.98 ± 0.044
18 | AAAGCG | 0.0389 ± 0.01 | 1.743 ± 0.0089 | 0.352 ± 0.079 | 1.989 ± 0.013
19 | AACGCU | 0.282 ± 0.034 | 2.01 ± 0.0054 | 0.217 ± 0.34 | 2 ± 0.035
20 | AACGCA | 0.404 ± 0.048 | 2.001 ± 0.013 | 0.533 ± 0.023 | 2 ± 0.035
21 | AACGCC | 0.452 ± 0.091 | 2.0652 ± 0.0011 | 0.336 ± 0.023 | 2.07 ± 0.046
22 | AAAGAG | 0.224 ± 0.031 | 1.617 ± 0.0032 | 0.316 ± 0.22 | 1.93 ± 0.049
23 | AAAGAC | 0.42 ± 0.029 | 1.98 ± 0.0069 | 0.38 ± 0.23 | 2.01 ± 0.028
24 | AAAGAU | 0.433 ± 0.025 | 1.9288 ± 0.0013 | 0.44 ± 0.027 | 2 ± 0.032

Row | Variant | FACS-Seq fitted mean (log10) ((6R,S)-folinic acid [1]) | normalized RNA/DNA level without ligand (log10) ((6R,S)-folinic acid [2]) | FACS-Seq fitted mean (log10) ((6R,S)-folinic acid [3]) | normalized RNA/DNA level with ligand (log10) ((6R,S)-folinic acid [4])
25 | AAAGAA | 0.282 ± 0.14 | 1.923 ± 0.011 | 0.569 ± 0.098 | 1.99 ± 0.037
26 | AAAUGA | 0.485 ± 0.018 | 1.963 ± 0.005 | 0.406 ± 0.022 | 2.04 ± 0.044
27 | AAAUGG | 0.445 ± 0.096 | 1.87 ± 0.0028 | 0.499 ± 0.072 | 2 ± 0.031
28 | AAAUGC | 0.594 ± 0.028 | 2.03 ± 0.007 | 0.713 ± 0.3 | 2.03 ± 0.033
29 | UACCCG | 0.166 ± 0.063 | 1.92 ± 0.03 | 0.279 ± 0.24 | 1.977 ± 0.0043
30 | UACAGG | 0.254 ± 0.021 | 1.661 ± 0.0093 | 0.489 ± 0.051 | 1.96 ± 0.033
31 | UACAGA | 0.358 ± 0.072 | 1.913 ± 0.011 | 0.548 ± 0.15 | 1.99 ± 0.037
32 | UACAGU | 0.183 ± 0.13 | 1.92 ± 0.021 | 0.133 ± 0.26 | 1.994 ± 0.0074
33 | GAAUAA | -0.184 ± 0.011 | 1.976 ± 0.0046 | -0.234 ± 0.28 | 1.989 ± 0.016
34 | GAAUAC | 0.463 ± 0.14 | 1.974 ± 0.0095 | 0.313 ± 0.25 | 2 ± 0.053
35 | AACACG | 0.361 ± 0.13 | 1.938 ± 0.0019 | 0.436 ± 0.18 | 2 ± 0.045
36 | UACAAU | 0.467 ± 0.071 | 1.95 ± 0.02 | 0.559 ± 0.071 | 2 ± 0.026
37 | UACAAG | 0.55 ± 0.1 | 1.74 ± 0.032 | 0.813 ± 0.031 | 1.94 ± 0.032
38 | UACAAA | 0.165 ± 0.11 | 1.9485 ± 0.00073 | 0.179 ± 0.031 | 1.99 ± 0.019
39 | AACAUC | -0.902 ± 0.27 | 2.061 ± 0.019 | -0.887 ± 0.24 | 2.06 ± 0.065
40 | AACAUA | 0.204 ± 0.049 | 1.975 ± 0.0044 | 0.324 ± 0.15 | 1.99 ± 0.033
41 | AACAUG | 0.494 ± 0.1 | 1.96 ± 0.0024 | 0.6524 ± 0.0008 | 2.02 ± 0.022
42 | GACGUA | 0.251 ± 0.023 | 1.9997 ± 0.00027 | 0.131 ± 0.26 | 2.03 ± 0.038
43 | GACGUG | 0.598 ± 0.2 | 1.946 ± 0.019 | 0.734 ± 0.17 | 2.01 ± 0.029
44 | CAAUUA | 0.413 ± 0.065 | 1.963 ± 0.016 | 0.429 ± 0.07 | 1.989 ± 0.015
45 | CAAUUC | -0.0653 ± 0.041 | 2.019 ± 0.012 | -0.136 ± 0.18 | 1.998 ± 0.016
46 | GAAGCG | 0.117 ± 0.13 | 1.929 ± 0.012 | 0.259 ± 0.065 | 2.02 ± 0.034
47 | GAAGCA | 0.272 ± 0.031 | 1.967 ± 0.015 | 0.486 ± 0.021 | 2 ± 0.024
48 | GAAGCU | 0.0826 ± 0.071 | 2.018 ± 0.015 | 0.0358 ± 0.15 | 2.04 ± 0.022

Row | Variant | FACS-Seq fitted mean (log10) ((6R,S)-folinic acid [1]) | normalized RNA/DNA level without ligand (log10) ((6R,S)-folinic acid [2]) | FACS-Seq fitted mean (log10) ((6R,S)-folinic acid [3]) | normalized RNA/DNA level with ligand (log10) ((6R,S)-folinic acid [4])
49 | AACGAG | 0.367 ± 0.0092 | 1.82 ± 0.032 | 0.501 ± 0.065 | 1.984 ± 0.01
50 | AACGAA | 0.105 ± 0.2 | 1.9508 ± 0.00076 | 0.0527 ± 0.083 | 1.99 ± 0.045
51 | CACAAA | 0.458 ± 0.03 | 1.981 ± 0.014 | 0.462 ± 0.16 | 1.99 ± 0.033
52 | AACCCC | 0.581 ± 0.12 | 2.013 ± 0.0022 | 0.492 ± 0.041 | 1.99 ± 0.045
53 | GACAGA | 0.403 ± 0.0081 | 1.994 ± 0.017 | 0.442 ± 0.15 | 2.01 ± 0.035
54 | GACAGG | 0.464 ± 0.089 | 1.959 ± 0.01 | 0.498 ± 0.27 | 2.02 ± 0.042
55 | GACCAA | 0.358 ± 0.039 | 2.0328 ± 0.00084 | 0.42 ± 0.074 | 2.03 ± 0.043
56 | AACCAA | 0.377 ± 0.016 | 1.989 ± 0.0067 | 0.433 ± 0.11 | 2 ± 0.028
57 | AACCAU | 0.386 ± 0.012 | 1.976 ± 0.014 | 0.303 ± 0.018 | 2 ± 0.057
58 | AACCAG | 0.421 ± 0.13 | 1.966 ± 0.015 | 0.407 ± 0.2 | 2.0092 ± 0.00083
59 | UACCGA | 0.3629 ± 0.0013 | 1.9669 ± 0.00083 | 0.4406 ± 0.0022 | 2.04 ± 0.048
60 | UACCGU | 0.352 ± 0.017 | 1.989 ± 0.0026 | 0.431 ± 0.11 | 2.02 ± 0.048
61 | UACCGG | 0.355 ± 0.059 | 1.982 ± 0.019 | 0.676 ± 0.1 | 2.004 ± 0.0069
62 | UACCGC | 0.235 ± 0.05 | 1.988 ± 0.017 | 0.503 ± 0.22 | 1.99 ± 0.066
63 | UAAGUG | 0.502 ± 0.074 | 1.6686 ± 0.0006 | 0.881 ± 0.18 | 1.93 ± 0.055
64 | UAAGUC | 0.228 ± 0.093 | 2.0619 ± 0.00099 | 0.173 ± 0.12 | 2.038 ± 0.0091
65 | UAAGUU | 0.118 ± 0.029 | 1.952 ± 0.0089 | 0.124 ± 0.17 | 2.01 ± 0.041
66 | CACGAU | 0.217 ± 0.11 | 1.99 ± 0.027 | 0.334 ± 0.6 | 2.01 ± 0.021
67 | AAAUAG | -0.0965 ± 0.1 | 1.903 ± 0.006 | -0.332 ± 0.53 | 1.98 ± 0.022
68 | AAAUAC | 0.31 ± 0.028 | 1.988 ± 0.0076 | 0.0315 ± 0.22 | 2 ± 0.03
69 | AAAUAU | 0.147 ± 0.058 | 1.949 ± 0.002 | 0.275 ± 0.077 | 2 ± 0.039
70 | AAAUAA | 0.0525 ± 0.017 | 1.94 ± 0.023 | 0.383 ± 0.051 | 1.98 ± 0.038
71 | UACACA | 0.187 ± 0.0057 | 1.974 ± 0.012 | -0.044 ± 0.049 | 1.9892 ± 0.0017
